# Reference: patent US20240368243A1
# What was measured:
# [1] = biological target: … (SEQ ID NO: 1)-HLA-A*02 complex (soluble, biotinylated) (human); assay: SPR (BIAcore) or BLI (Octet) per Example 3, biotinylated pHLA immobilised, 25 C
# [2] = biological target: … (SEQ ID NO: 1)-HLA-A*02 complex presented on antigen positive cancer cells (human); assay: cell-based or functional assay
Kd [1] [nM],t1/2 [1] [h],"EC50 (mel624), IFN-γ ELISPOT, activation of redirected T cells [2] [nM]",Binder
0.0118,58.3,0.0172,"ImmTAC molecule comprising a79 (SEQ ID NO: 7) and b76 (SEQ ID NO: 24) (TCR, part only; not given: anti-CD3 scFv, linker, TCR constants, part only) TCR alpha, part: GDAKTTQPNSMESNEEEPVHLPCNHSTISGTDYIHWYRQLPSQGPEYVIHGLTSNVNNRMASLAIAEDRKSSTLILHRATLRDAAVYYCILILGHSRLGNYIATFGKGTKLSVIP TCR beta, part: DGGITQSPKYLFRKEGQNVTLSCEQNLNHDAMYWYRQDPGQGLRLIYYSQIMGDEQKGDIAEGYSVSREKKESFPLTVTSAQKNPTAFYLCASSWWTGGSSPIRFGPGTRLTVT"
0.089,9.16,0.0167,"ImmTAC molecule comprising a79 (SEQ ID NO: 7) and b66 (SEQ ID NO: 23) (TCR, part only; not given: anti-CD3 scFv, linker, TCR constants, part only) TCR alpha, part: GDAKTTQPNSMESNEEEPVHLPCNHSTISGTDYIHWYRQLPSQGPEYVIHGLTSNVNNRMASLAIAEDRKSSTLILHRATLRDAAVYYCILILGHSRLGNYIATFGKGTKLSVIP TCR beta, part: DGGITQSPKYLFRKEGQNVTLSCEQNLNHDAMYWYRQDPGQGLRLIYYSQIMGDEQKGDIAEGYSVSREKKESFPLTVTSAQKNPTAFYLCASSPWTGGSAPIRFGPGTRLTVT"
0.17,7.31,0.0601,"ImmTAC molecule comprising a109 (SEQ ID NO: 8) and b46 (SEQ ID NO: 11) (TCR, part only; not given: anti-CD3 scFv, linker, TCR constants, part only) TCR alpha, part: GDAKTTQPNSMESNEEEPVHLPCNHSTISGTDYIHWYRQLPSQGPEYVIHGLTSNVNNRMASLAIAEDRKSSTLILHRATLRDAAVYYCILILGHSRLGNYQATFGKGTKLSVIP TCR beta, part: DGGITQSPKYLFRKEGQNVTLSCEQNLNHDAMYWYRQDPGQGLRLIYYSQIMGDEQKGDIAEGYSVSREKKESFPLTVTSAQKNPTAFYLCASSWWTGGSAPIRFGPGTRLTVT"
0.052,20.4,0.0398,"ImmTAC molecule comprising a79 (SEQ ID NO: 7) and b69 (SEQ ID NO: 14) (TCR, part only; not given: anti-CD3 scFv, linker, TCR constants, part only) TCR alpha, part: GDAKTTQPNSMESNEEEPVHLPCNHSTISGTDYIHWYRQLPSQGPEYVIHGLTSNVNNRMASLAIAEDRKSSTLILHRATLRDAAVYYCILILGHSRLGNYIATFGKGTKLSVIP TCR beta, part: DGGITQSPKYLFRKEGQNVTLSCEQNLNHDAMYWYRQDPGQGLRLIYYSQIMGDEQKGDIAEGYSVSREKKESFPLTVTSAQKNPTAFYLCASSWWTGGSAEIRFGPGTRLTVT"
0.132,4.6,0.0231,"ImmTAC molecule comprising a79 (SEQ ID NO: 7) and b73 (SEQ ID NO: 16) (TCR, part only; not given: anti-CD3 scFv, linker, TCR constants, part only) TCR alpha, part: GDAKTTQPNSMESNEEEPVHLPCNHSTISGTDYIHWYRQLPSQGPEYVIHGLTSNVNNRMASLAIAEDRKSSTLILHRATLRDAAVYYCILILGHSRLGNYIATFGKGTKLSVIP TCR beta, part: DGGITQSPKYLFRKEGQNVTLSCEQNLNHDAMYWYRQDPGQGLRLIYYSQIMGDEQKGDIAEGYSVSREKKESFPLTVTSAQKNPTAFYLCASSWWTGGAAPISFGPGTRLTVT"
0.047,12.7,0.0263,"ImmTAC molecule comprising a79 (SEQ ID NO: 7) and b67 (SEQ ID NO: 13) (TCR, part only; not given: anti-CD3 scFv, linker, TCR constants, part only) TCR alpha, part: GDAKTTQPNSMESNEEEPVHLPCNHSTISGTDYIHWYRQLPSQGPEYVIHGLTSNVNNRMASLAIAEDRKSSTLILHRATLRDAAVYYCILILGHSRLGNYIATFGKGTKLSVIP TCR beta, part: DGGITQSPKYLFRKEGQNVTLSCEQNLNHDAMYWYRQDPGQGLRLIYYSQIMGDEQKGDIAEGYSVSREKKESFPLTVTSAQKNPTAFYLCASSWWTSGSAPIRFGPGTRLTVT"
0.0577,16.9,0.0236,"ImmTAC molecule comprising a79 (SEQ ID NO: 7) and b75 (SEQ ID NO: 20) (TCR, part only; not given: anti-CD3 scFv, linker, TCR constants, part only) TCR alpha, part: GDAKTTQPNSMESNEEEPVHLPCNHSTISGTDYIHWYRQLPSQGPEYVIHGLTSNVNNRMASLAIAEDRKSSTLILHRATLRDAAVYYCILILGHSRLGNYIATFGKGTKLSVIP TCR beta, part: DGGITQSPKYLFRKEGQNVTLSCEQNLNHDAMYWYRQDPGQGLRLIYYSQIMGDEQKGDIAEGYSVSREKKESFPLTVTSAQKNPTAFYLCASSWWTGGSAPISFGPGTRLTVT"
0.087,14.9,0.0318,"ImmTAC molecule comprising a79 (SEQ ID NO: 7) and b71 (SEQ ID NO: 15) (TCR, part only; not given: anti-CD3 scFv, linker, TCR constants, part only) TCR alpha, part: GDAKTTQPNSMESNEEEPVHLPCNHSTISGTDYIHWYRQLPSQGPEYVIHGLTSNVNNRMASLAIAEDRKSSTLILHRATLRDAAVYYCILILGHSRLGNYIATFGKGTKLSVIP TCR beta, part: DGGITQSPKYLFRKEGQNVTLSCEQNLNHDAMYWYRQDPGQGLRLIYYSQIMGDEQKGDIAEGYSVSREKKESFPLTVTSAQKNPTAFYLCASSWWTGGSAPIYFGPGTRLTVT"
0.0779,8.6,0.0138,"ImmTAC molecule comprising a79 (SEQ ID NO: 7) and b77 (SEQ ID NO: 18) (TCR, part only; not given: anti-CD3 scFv, linker, TCR constants, part only) TCR alpha, part: GDAKTTQPNSMESNEEEPVHLPCNHSTISGTDYIHWYRQLPSQGPEYVIHGLTSNVNNRMASLAIAEDRKSSTLILHRATLRDAAVYYCILILGHSRLGNYIATFGKGTKLSVIP TCR beta, part: DGGITQSPKYLFRKEGQNVTLSCEQNLNHDAMYWYRQDPGQGLRLIYYSQIMGDEQKGDIAEGYSVSREKKESFPLTVTSAQKNPTAFYLCASSWWTGGAAPIRFGPGTRLTVT"

# The remaining lines, values behind:
Binder,Kd [1] [nM],t1/2 [1] [h],"EC50 (mel624), IFN-γ ELISPOT, activation of redirected T cells [2] [nM]"
"ImmTAC molecule comprising a79 (SEQ ID NO: 7) and b64 (SEQ ID NO: 12) (TCR, part only; not given: anti-CD3 scFv, linker, TCR constants, part only) TCR alpha, part: GDAKTTQPNSMESNEEEPVHLPCNHSTISGTDYIHWYRQLPSQGPEYVIHGLTSNVNNRMASLAIAEDRKSSTLILHRATLRDAAVYYCILILGHSRLGNYIATFGKGTKLSVIP TCR beta, part: DGGITQSPKYLFRKEGQNVTLSCEQNLNHDAMYWYRQDPGQGLRLIYYSQIMNDEQKGDIAEGYSVSREKKESFPLTVTSAQKNPTAFYLCASSWWTGGSAPIRFGPGTRLTVT",0.138,6.38,0.0275
"ImmTAC molecule comprising a79 (SEQ ID NO: 7) and b63 (SEQ ID NO: 22) (TCR, part only; not given: anti-CD3 scFv, linker, TCR constants, part only) TCR alpha, part: GDAKTTQPNSMESNEEEPVHLPCNHSTISGTDYIHWYRQLPSQGPEYVIHGLTSNVNNRMASLAIAEDRKSSTLILHRATLRDAAVYYCILILGHSRLGNYIATFGKGTKLSVIP TCR beta, part: DGGITQSPKYLFRKEGQNVTLSCEQNLNHDAMYWYRQDPGQGLRLIYYSQIVGDEQKGDIAEGYSVSREKKESFPLTVTSAQKNPTAFYLCASSWWTGGSAPIRFGPGTRLTVT",0.079,10.8,0.0229
"ImmTAC molecule comprising a79 (SEQ ID NO: 7) and b58 (SEQ ID NO: 21) (TCR, part only; not given: anti-CD3 scFv, linker, TCR constants, part only) TCR alpha, part: GDAKTTQPNSMESNEEEPVHLPCNHSTISGTDYIHWYRQLPSQGPEYVIHGLTSNVNNRMASLAIAEDRKSSTLILHRATLRDAAVYYCILILGHSRLGNYIATFGKGTKLSVIP TCR beta, part: DGGITQSPKYLFRKEGQNVTLSCEQNLNHDAMYWYRQDPGQGLRLIYYSQIMGDEQKGDIAEGYSVSREKKESFPLTVTSAQKNPTAFYLCASSWWTGGSSPISFGPGTRLTVT",0.0231,28.7,0.0106
"ImmTAC molecule comprising a28 (SEQ ID NO: 6) and b75 (SEQ ID NO: 20) (TCR, part only; not given: anti-CD3 scFv, linker, TCR constants, part only) TCR alpha, part: GDAKTTQPNSMESNEEEPVHLPCNHSTISGTDYIHWYRQLPSQGPEYVIHGLTSNVNNRMASLAIAEDRKSSTLILHRATLRDAAVYYCILILGHSRAGNYIATFGKGTKLSVIP TCR beta, part: DGGITQSPKYLFRKEGQNVTLSCEQNLNHDAMYWYRQDPGQGLRLIYYSQIMGDEQKGDIAEGYSVSREKKESFPLTVTSAQKNPTAFYLCASSWWTGGSAPISFGPGTRLTVT",0.214,5.1,0.0139
"ImmTAC molecule comprising a28 (SEQ ID NO: 6) and b58 (SEQ ID NO: 21) (TCR, part only; not given: anti-CD3 scFv, linker, TCR constants, part only) TCR alpha, part: GDAKTTQPNSMESNEEEPVHLPCNHSTISGTDYIHWYRQLPSQGPEYVIHGLTSNVNNRMASLAIAEDRKSSTLILHRATLRDAAVYYCILILGHSRAGNYIATFGKGTKLSVIP TCR beta, part: DGGITQSPKYLFRKEGQNVTLSCEQNLNHDAMYWYRQDPGQGLRLIYYSQIMGDEQKGDIAEGYSVSREKKESFPLTVTSAQKNPTAFYLCASSWWTGGSSPISFGPGTRLTVT",0.079,8.9,0.012
"ImmTAC molecule comprising a28 (SEQ ID NO: 6) and b74 (SEQ ID NO: 17) (TCR, part only; not given: anti-CD3 scFv, linker, TCR constants, part only) TCR alpha, part: GDAKTTQPNSMESNEEEPVHLPCNHSTISGTDYIHWYRQLPSQGPEYVIHGLTSNVNNRMASLAIAEDRKSSTLILHRATLRDAAVYYCILILGHSRAGNYIATFGKGTKLSVIP TCR beta, part: DGGITQSPKYLFRKEGQNVTLSCEQNLNHDAMYWYRQDPGQGLRLIYYSQIMGDEQKGDIAEGYSVSREKKESFPLTVTSAQKNPTAFYLCASSWWTGGASPIRFGPGTRLTVT",0.182,3.7,0.0243
"ImmTAC molecule comprising a28 (SEQ ID NO: 6) and b60 (SEQ ID NO: 19) (TCR, part only; not given: anti-CD3 scFv, linker, TCR constants, part only) TCR alpha, part: GDAKTTQPNSMESNEEEPVHLPCNHSTISGTDYIHWYRQLPSQGPEYVIHGLTSNVNNRMASLAIAEDRKSSTLILHRATLRDAAVYYCILILGHSRAGNYIATFGKGTKLSVIP TCR beta, part: DGGITQSPKYLFRKEGQNVTLSCEQNLNHDAMYWYRQDPGQGLRLIYYSQIMGDEQKGDIAEGYSVSREKKESFPLTVTSAQKNPTAFYLCASSWWTGGASEISFGPGTRLTVT",0.261,2.8,0.0317
"ImmTAC molecule comprising a28 (SEQ ID NO: 6) and b57 (SEQ ID NO: 10) (TCR, part only; not given: anti-CD3 scFv, linker, TCR constants, part only) TCR alpha, part: GDAKTTQPNSMESNEEEPVHLPCNHSTISGTDYIHWYRQLPSQGPEYVIHGLTSNVNNRMASLAIAEDRKSSTLILHRATLRDAAVYYCILILGHSRAGNYIATFGKGTKLSVIP TCR beta, part: DGGITQSPKYLFRKEGQNVTLSCEQNLNHDAMYWYRQDPGQGLRLIYYSQIMGDEQKGDIAEGYSVSREKKESFPLTVTSAQKNPTAFYLCASSWWTSGASPISFGPGTRLTVT",0.083,8.3,0.0134
